In IntAct's records for PubMed 9528782:

B1: DBF2 kinase activator protein MOB1 (Saccharomyces cerevisiae), P40484 (parent)
chain: MSFLQNFHISPGQTIRSTRGFKWNTANAANNAGSVSPTKATPHNNTINGNNNNANTINNRADFTNNPVNGYNESDHGRMSPVLTTPKRHAPPPEQLQNVTDFNYTPSHQKPFLQPQAGTTVTTHQDIKQIVEMTLGSEGVLNQAVKLPRGEDENEWLAVHCVDFYNQINMLYGSITEFCSPQTCPRMIATNEYEYLWAFQKGQPPVSVSAPKYVECLMRWCQDQFDDESLFPSKVTGTFPEGFIQRVIQPILRRLFRVYAHIYCHHFNEILELNLQTVLNTSFRHFCLFAQEFELLRPADFGPLLELVMELRDR
partner: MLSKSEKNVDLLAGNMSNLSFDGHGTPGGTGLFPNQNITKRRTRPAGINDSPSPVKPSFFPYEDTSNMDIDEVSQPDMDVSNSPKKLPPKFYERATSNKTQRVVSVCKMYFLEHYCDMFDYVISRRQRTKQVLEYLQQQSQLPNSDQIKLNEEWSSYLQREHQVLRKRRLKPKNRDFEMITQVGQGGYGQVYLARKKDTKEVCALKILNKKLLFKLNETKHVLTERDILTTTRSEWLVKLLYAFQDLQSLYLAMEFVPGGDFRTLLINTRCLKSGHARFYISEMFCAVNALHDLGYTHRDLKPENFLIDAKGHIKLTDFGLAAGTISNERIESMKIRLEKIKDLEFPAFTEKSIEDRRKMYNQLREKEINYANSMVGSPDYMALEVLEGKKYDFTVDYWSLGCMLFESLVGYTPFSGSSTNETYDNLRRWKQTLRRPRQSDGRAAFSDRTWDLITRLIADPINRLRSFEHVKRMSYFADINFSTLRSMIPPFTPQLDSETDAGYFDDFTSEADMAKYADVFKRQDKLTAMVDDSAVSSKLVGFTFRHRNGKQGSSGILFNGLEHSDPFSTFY
B2: DBF2 kinase activator protein MOB1 (Saccharomyces cerevisiae), P40484 (parent)
chain: B1 chain
partner: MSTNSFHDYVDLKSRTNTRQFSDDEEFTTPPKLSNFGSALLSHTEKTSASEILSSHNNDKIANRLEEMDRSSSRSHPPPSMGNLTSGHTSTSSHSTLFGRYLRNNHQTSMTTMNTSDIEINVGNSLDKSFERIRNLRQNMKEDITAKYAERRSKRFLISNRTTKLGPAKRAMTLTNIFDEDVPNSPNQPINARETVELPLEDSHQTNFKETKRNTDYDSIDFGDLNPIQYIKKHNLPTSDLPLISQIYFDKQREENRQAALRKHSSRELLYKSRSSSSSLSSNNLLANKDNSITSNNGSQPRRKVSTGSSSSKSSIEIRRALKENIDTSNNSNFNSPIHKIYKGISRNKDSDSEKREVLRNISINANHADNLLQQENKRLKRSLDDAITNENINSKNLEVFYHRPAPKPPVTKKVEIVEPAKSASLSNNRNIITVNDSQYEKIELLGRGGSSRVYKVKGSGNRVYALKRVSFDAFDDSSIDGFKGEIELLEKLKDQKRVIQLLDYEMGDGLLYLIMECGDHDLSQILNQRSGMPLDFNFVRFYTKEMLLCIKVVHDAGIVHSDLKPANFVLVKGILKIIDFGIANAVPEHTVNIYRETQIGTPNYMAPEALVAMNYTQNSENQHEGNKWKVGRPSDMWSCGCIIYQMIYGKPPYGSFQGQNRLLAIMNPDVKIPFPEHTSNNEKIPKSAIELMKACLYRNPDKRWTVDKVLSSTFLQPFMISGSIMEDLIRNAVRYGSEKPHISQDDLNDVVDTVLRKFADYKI
B3: DBF2 kinase activator protein MOB1 (Saccharomyces cerevisiae), P40484 (parent)
chain: B1 chain
partner: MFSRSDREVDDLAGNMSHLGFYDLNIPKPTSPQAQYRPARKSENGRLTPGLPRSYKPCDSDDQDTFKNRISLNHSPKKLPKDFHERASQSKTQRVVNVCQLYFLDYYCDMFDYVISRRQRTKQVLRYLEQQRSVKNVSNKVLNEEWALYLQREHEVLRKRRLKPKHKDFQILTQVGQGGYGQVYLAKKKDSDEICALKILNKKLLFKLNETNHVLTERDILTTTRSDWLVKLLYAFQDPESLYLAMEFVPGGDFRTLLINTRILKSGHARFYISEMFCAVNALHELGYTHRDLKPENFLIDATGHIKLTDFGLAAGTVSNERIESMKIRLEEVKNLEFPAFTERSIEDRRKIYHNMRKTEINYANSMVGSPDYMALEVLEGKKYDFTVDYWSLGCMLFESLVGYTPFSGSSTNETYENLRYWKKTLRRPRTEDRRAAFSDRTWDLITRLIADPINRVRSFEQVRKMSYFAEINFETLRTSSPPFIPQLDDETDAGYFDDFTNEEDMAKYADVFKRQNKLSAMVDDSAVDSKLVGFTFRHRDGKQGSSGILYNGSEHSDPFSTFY

Variants of: B1
Details: with dbf2_yeast DBF2, P22204

Variant | effect of a mutation on the interaction
T85P;Q167R;T183H | decreasing interaction strength
E151K | disrupting interaction strength
L157P;A158I | disrupting interaction strength

Variants of: B2
Details: with mps1_yeast MPS1, P54199

Variant | effect of a mutation on the interaction
E151K | with no effect
L157P;A158I | with no effect
T85P;Q167R;T183H | decreasing interaction strength

Variants of: B3
Details: with dbf20_yeast DBF20, P32328

Variant | effect of a mutation on the interaction
T85P;Q167R;T183H | disrupting interaction strength
E151K | disrupting interaction strength
L157P;A158I | disrupting interaction strength
